Our source for the ratio to parent (arbitrary unit) values is paper PMC5344305.

The target in the assay is adaptor protein-2 (AP-2). In words: pull-down (IP with AP-2 antibody, western blot densitometry). The following applies: HEK-293 cells transfected with GFP-V0a1 constructs; n=4; parent: est. 1.0; read off a plot.

On to WT GFP-V0a1 (from UniProt Q93050) C25S, for which the ratio to parent (arbitrary unit) came to 0.37.
